Reference: patent US20250144228A1 (CHILDREN S MEDICAL CENTER, published 2025)

B1: anti-p42 G11 VHH (P. falciparum MSP-1 specific) (VHH)
VHH: QVQLVETGGGLVQAGGSLRLSCVVSGRSLILYGMGWFRQAPGKEREFVAGIVWNGGWTYYADSVKGRFTISRDTAKNTVYLQMNSLKPEDTAVYSCAAGPGDGRRRVAPAEYNYWGQGTQVTVSS
B2: anti-MICA VHH nanobody clone A1 (VHH)
VHH: QVQLVESGGGLVQPGGSLRLSCAASGFTLDYYDIGWFRQAPGKEREGVSCITSSDGSTYYADSVKGRFTISRDNAKNTVYLQMNSLKPEDTAVYYCAADCTKPQWKSKTEAWGQGTQVTVSS
B3: anti-p42 A6 VHH (P. falciparum MSP-1 specific) (VHH)
VHH: QVQLVESGGGLVQAGGSLRLSCAASARTFSYYGAAWFRQAPGKEREFVAAVSWNGDDTYYADSVKGRFTISRDNTKNTVSLQMNALKPEDTAVYYCEAAAYGRDWRQSANYVYWGQGTQVTVSS
B4: anti-p83 B4 VHH (P. falciparum MSP-1 specific) (VHH)
VHH: QLQLVESGGGLAQAGGSLRLSCAASGRTSSTKPMGWFRQAPGLEREFVASISWLGGSTLYSDSVKGRFTISRDNAKNTVYLQMNSLKSEDTAVYYCAGGTSAYSGRDSSRYEYWGQGTQVTVSS
notes: also called anti-p84 B4
B5: anti-MICA VHH nanobody clone H3 (VHH)
VHH: QVQLVETGGGLVQAGGSLRLSCAASGRTFSSYAMGWFRQAPGKEREFVAGISWSGGSTYYGDSVKGRFTISRDNAKNTVYLLMNSLKPEDTAVYYCAADLVRSYGSSWPSLFQFRNPEDVQDGMDYWGKGTLVTVSS

Legend:
[1] = biological target: T1, P. falciparum MSP-1 subunit p83 (plate-bound, isolated) (Plasmodium falciparum, UniProt Q8I0U8 20-722); test: Western blot against PfMSP-1 subunits
T1 construct: domain: p83
T1 sequence: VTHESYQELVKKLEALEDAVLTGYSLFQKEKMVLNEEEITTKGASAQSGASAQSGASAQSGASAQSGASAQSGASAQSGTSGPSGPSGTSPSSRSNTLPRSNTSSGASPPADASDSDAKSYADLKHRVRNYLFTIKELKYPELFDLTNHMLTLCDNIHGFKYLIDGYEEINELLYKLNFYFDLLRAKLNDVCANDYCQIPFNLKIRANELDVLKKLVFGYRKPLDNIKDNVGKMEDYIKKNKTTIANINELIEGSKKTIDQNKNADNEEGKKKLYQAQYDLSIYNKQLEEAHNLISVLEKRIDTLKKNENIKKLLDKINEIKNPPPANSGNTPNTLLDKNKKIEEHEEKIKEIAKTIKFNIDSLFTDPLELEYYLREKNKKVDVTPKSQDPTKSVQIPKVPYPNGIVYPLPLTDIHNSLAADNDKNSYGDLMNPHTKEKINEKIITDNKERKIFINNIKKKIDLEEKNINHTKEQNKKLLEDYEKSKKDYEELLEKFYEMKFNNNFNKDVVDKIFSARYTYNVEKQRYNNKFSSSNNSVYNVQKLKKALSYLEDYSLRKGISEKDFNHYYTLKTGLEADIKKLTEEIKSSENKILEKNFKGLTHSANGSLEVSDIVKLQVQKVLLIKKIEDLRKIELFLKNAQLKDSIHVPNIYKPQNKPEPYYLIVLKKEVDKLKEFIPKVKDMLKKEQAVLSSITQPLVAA

[2] = biological target: T2, P. falciparum MSP-1 subunit p38 (plate-bound, isolated) (Plasmodium falciparum, UniProt Q8I0U8 911-1326); test: Western blot against PfMSP-1 subunits
T2 construct: domain: p38
T2 sequence: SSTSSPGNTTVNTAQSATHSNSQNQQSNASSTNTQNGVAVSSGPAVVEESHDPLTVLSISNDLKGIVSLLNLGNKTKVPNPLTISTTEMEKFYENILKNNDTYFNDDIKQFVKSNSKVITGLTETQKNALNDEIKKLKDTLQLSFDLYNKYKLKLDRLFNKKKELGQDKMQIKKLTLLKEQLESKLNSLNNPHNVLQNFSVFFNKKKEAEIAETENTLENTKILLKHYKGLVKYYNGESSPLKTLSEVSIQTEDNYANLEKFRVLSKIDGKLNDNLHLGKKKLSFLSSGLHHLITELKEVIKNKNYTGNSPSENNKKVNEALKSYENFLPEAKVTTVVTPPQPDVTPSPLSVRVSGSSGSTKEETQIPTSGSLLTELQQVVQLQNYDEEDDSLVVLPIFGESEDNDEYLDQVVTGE

[3] = biological target: T3, MICB expressed on transfected B16F10 melanoma cells (human, UniProt Q29980 23-383); test: flow cytometry of transfected B16F10 cells, biotinylated nanobody with streptavidin-PE
T3 construct: whole, on cells; also called MICB-transfected cells
T3 sequence (looked up): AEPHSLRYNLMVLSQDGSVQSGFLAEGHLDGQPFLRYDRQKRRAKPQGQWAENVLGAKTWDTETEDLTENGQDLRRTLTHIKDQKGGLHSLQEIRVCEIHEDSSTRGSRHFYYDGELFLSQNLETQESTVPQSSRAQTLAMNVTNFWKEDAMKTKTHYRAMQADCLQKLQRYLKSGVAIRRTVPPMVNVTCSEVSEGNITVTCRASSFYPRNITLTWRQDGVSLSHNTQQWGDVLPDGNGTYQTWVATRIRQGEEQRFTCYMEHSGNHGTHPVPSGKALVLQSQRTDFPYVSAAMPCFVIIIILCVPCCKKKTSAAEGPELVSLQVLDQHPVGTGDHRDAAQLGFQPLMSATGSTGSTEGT

[4] = biological target: T4, P. falciparum MSP-1 subunit p42 (plate-bound, isolated) (Plasmodium falciparum, UniProt Q8I0U8 1327-1699); test: Western blot against PfMSP-1 subunits
T4 construct: domain: p42
T4 sequence: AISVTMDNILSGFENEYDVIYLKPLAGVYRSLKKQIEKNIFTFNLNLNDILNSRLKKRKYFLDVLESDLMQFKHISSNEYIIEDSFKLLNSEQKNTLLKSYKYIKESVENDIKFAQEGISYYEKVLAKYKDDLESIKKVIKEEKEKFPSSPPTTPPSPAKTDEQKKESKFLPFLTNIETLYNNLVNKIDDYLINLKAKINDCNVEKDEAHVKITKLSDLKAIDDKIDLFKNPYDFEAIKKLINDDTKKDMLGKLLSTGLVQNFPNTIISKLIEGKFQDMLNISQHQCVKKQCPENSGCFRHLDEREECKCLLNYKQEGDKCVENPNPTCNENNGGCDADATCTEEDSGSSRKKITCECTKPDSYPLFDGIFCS

| Binder | binding result [1] | binding result [2] | binding result [3] | binding result [4] |
| --- | --- | --- | --- | --- |
| B1 | no binding | no binding |  |  |
| B2 |  |  | no binding |  |
| B3 | no binding | no binding |  |  |
| B4 |  | no binding |  | no binding |
| B5 |  |  | no binding |  |
